In patent US20130156761A1 one finds EC80 of calcium flux data, which are given here for one substance.

For the assay, the target named is human CX3CR1 with FLAG tag at N-terminus, stably expressed on HEK293T cells (Multispan) (human) (UniProt P49238). Kind of assay: cell-based or functional assay.
Sequence of human CX3CR1 with FLAG tag at N-terminus, stably expressed on HEK293T cells (Multispan) (human) (P49238 whole entry): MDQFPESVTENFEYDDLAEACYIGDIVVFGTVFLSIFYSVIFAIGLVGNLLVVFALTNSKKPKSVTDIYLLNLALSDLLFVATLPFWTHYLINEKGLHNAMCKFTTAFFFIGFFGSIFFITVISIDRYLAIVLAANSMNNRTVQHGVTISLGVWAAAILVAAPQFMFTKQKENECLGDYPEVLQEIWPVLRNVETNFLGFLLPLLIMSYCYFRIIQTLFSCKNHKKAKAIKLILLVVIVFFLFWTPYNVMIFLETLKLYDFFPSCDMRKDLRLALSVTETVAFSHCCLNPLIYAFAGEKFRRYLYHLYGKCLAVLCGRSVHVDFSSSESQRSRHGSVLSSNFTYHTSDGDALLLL

For the substance “CX3CL1 (control agonist, Peprotech Cat#300-31) (from UniProt P78423 25-100) (ligand)”, the EC80 of calcium flux is 0.04 µM.
